Experimental data reported in patent publication US20260242419A1, “A CYCLIC PEPTIDE FOR TRAPPING INTERLEUKIN-1 BETA” (Merck Sharp & Dohme LLC, priority 2023, published 2026).
Non-standard residues stand in square brackets, D forms with d. Trp(4-Cl)(βS-Me) = C[C@@H](c1c[nH]c2cccc(Cl)c12)[C@H](N)C(=O)O; dPro(4R-(4-pyridylmethyl)) = O=C(O)[C@H]1C[C@@H](Cc2ccncc2)CN1; dPro(3S-(4-Br-benzyl)) = O=C(O)[C@@H]1NCC[C@@H]1Cc1ccc(Br)cc1; Trp(βS-Me,4-F) = C[C@@H](c1c[nH]c2cccc(F)c12)[C@H](N)C(=O)O; Bip(4'-COOH) = N[C@@H](Cc1ccc(-c2ccc(C(=O)O)cc2)cc1)C(=O)O; Ala(1-bicyclo(1.1.1)pentyl) = N[C@@H](CC12CC(C1)C2)C(=O)O; dPro(4R-Bzl(4-F)) = O=C(O)[C@H]1C[C@@H](Cc2ccc(F)cc2)CN1; 1Nal(3S-Me) = C[C@@H](c1cccc2ccccc12)[C@H](N)C(=O)O; Ala(pyrimidin-5-yl) = N[C@@H](Cc1cncnc1)C(=O)O; Phe(4-COOH) = N[C@@H](Cc1ccc(C(=O)O)cc1)C(=O)O; Pro(cis-4-F) = O=C(O)[C@@H]1C[C@H](F)CN1; Ala(4-THP) = N[C@@H](CC1CCOCC1)C(=O)O; d(αMeD) = C[C@@](N)(CC(=O)O)C(=O)O; 4Pal = N[C@@H](Cc1ccncc1)C(=O)O; αMeK = C[C@](N)(CCCCN)C(=O)O; hSer = N[C@@H](CCO)C(=O)O; Orn = NCCC[C@H](N)C(=O)O; Dab = NCC[C@H](N)C(=O)O; Dap = NC[C@H](N)C(=O)O; Aib = CC(C)(N)C(=O)O

B1: SEQ ID NO: 146 (peptide)
peptide: cyclo([Bip(4'-COOH)][Ala(1-bicyclo(1.1.1)pentyl)][Phe(4-COOH)]G[Pro(cis-4-F)][Trp(βS-Me,4-F)][Aib]SW[αMeK][Ala(4-THP)]Q[Dab]G[dPro(4R-Bzl(4-F))])
modifications: ring closure inferred; not fully specified (bridges); printed as Bip4CO2H-AlaPent-Phe4COOH-G-Proc4F-SbMeW4F-Aib-S-W-aMeK-AlaTHP4-Q-Dab-G-dProc4Bn4F, cyclic (macrolactam)
B2: SEQ ID NO: 149 (peptide)
peptide: cyclo([Bip(4'-COOH)][4Pal][Phe(4-COOH)]G[Pro(cis-4-F)][1Nal(3S-Me)][Aib]EW[Aib][Ala(pyrimidin-5-yl)]Q[Dab]G[dPro(4R-Bzl(4-F))])
modifications: ring closure inferred; not fully specified (bridges); printed as Bip4CO2H-4Pal-Phe4COOH-G-Proc4F-sbMe1Nal-Aib-E-W-Aib-PyrimAla-Q-Dab-G-dProc4Bn4F, cyclic (macrolactam)
B3: SEQ ID NO: 148 (peptide)
peptide: cyclo([Bip(4'-COOH)][4Pal][Phe(4-COOH)]G[Pro(cis-4-F)][Trp(4-Cl)(βS-Me)][Aib]EW[Aib][Ala(pyrimidin-5-yl)]Q[Dab]G[dPro(4R-Bzl(4-F))])
modifications: ring closure inferred; not fully specified (bridges); printed as Bip4CO2H-4Pal-Phe4COOH-G-Proc4F-sbMeW4Cl-Aib-E-W-Aib-PyrimAla-Q-Dab-G-dProc4Bn4F, cyclic (macrolactam)
B4: SEQ ID NO: 147 (peptide)
peptide: cyclo([Bip(4'-COOH)][Ala(1-bicyclo(1.1.1)pentyl)][Phe(4-COOH)]G[Pro(cis-4-F)][Trp(βS-Me,4-F)][Aib][hSer]W[αMeK][Ala(pyrimidin-5-yl)]Q[Dab]G[dPro(4R-Bzl(4-F))])
modifications: ring closure inferred; not fully specified (bridges); printed as Bip4CO2H-AlaPent-Phe4COOH-G-Proc4F-SbMeW4F-Aib-hS-W-aMeK-PyrimAla-Q-Dab-G-dProc4Bn4F, cyclic (macrolactam)

Molecular target: Recombinant human IL-1β (BioLegend 579404) (human, UniProt P01584 117-269)
Test: cell-based or functional assay

| Binder | MRC5 IC50 [nM] |
| --- | --- |
| cyclo([Bip(4'-COOH)][4Pal][Phe(4-COOH)]G[Pro(cis-4-F)][Trp(βS-Me,4-F)][Aib]EW[Aib][Ala(pyrimidin-5-yl)]Q[Dap]G[dPro(3S-(4-Br-benzyl))]) (ring closure inferred) [SEQ ID NO: 150] | 0.019 |
| B1 | 0.034 |
| cyclo([Bip(4'-COOH)][4Pal][Phe(4-COOH)]G[Pro(cis-4-F)][Trp(βS-Me,4-F)][Aib]SW[d(αMeD)][Ala(pyrimidin-5-yl)]Q[Dab]G[dPro(4R-(4-pyridylmethyl))]) (ring closure inferred) [SEQ ID NO: 154] | 0.011 |
| B2 | 0.024 |
| cyclo([Bip(4'-COOH)][4Pal][Phe(4-COOH)]G[Pro(cis-4-F)][Trp(βS-Me,4-F)][Aib]EW[Aib][Ala(pyrimidin-5-yl)]QKG[dPro(3S-(4-Br-benzyl))]) (ring closure inferred) [SEQ ID NO: 152] | 0.031 |
| B3 | 0.032 |
| cyclo([Bip(4'-COOH)][4Pal][Phe(4-COOH)]G[Pro(cis-4-F)][Trp(βS-Me,4-F)][Aib]EW[Aib][Ala(pyrimidin-5-yl)]Q[Orn]G[dPro(3S-(4-Br-benzyl))]) (ring closure inferred) [SEQ ID NO: 151] | 0.022 |
| B4 | 0.045 |
| cyclo([Bip(4'-COOH)][4Pal][Phe(4-COOH)]G[Pro(cis-4-F)][1Nal(3S-Me)][Aib]EW[Aib][Ala(pyrimidin-5-yl)]Q[Dab]G[dPro(3S-(4-Br-benzyl))]) (ring closure inferred) [SEQ ID NO: 153] | 0.019 |
